# Experimental data reported in the supplement of paper PMC12042874.
# ± gives the uncertainty stated by the source.
# Test: amyloid nucleation score (Sup35N fusion, yeast selection) (log enrichment); library NNK3; higher = more nucleation; inactive = no reads after selection
# Method in brief: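 The nucleation score is the DiMSum log enrichment of output over input reads, centred on the mode score of non-aggregating sequences. Only sequences with 100 or more input reads were scored, using Illumina sequencing of input and output plasmid inserts. Psi-negative yeast expressing Sup35N fused to peptides of 20 random codons were induced 24 hours with 100 μM copper sulfate and grown 7 days at 30°C on medium lacking adenine and uracil.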
row,Substance,amyloid nucleation score
1,VQGKALAS,inactive
2,KPGIRYYFISM,1.52 ± 0.12
3,ETNQSMY,1.51 ± 0.075
4,RPFSNAGYAFNHGFFV,inactive
5,DGNLPPNWLKGACTFRWTFI,inactive
6,FLCQFLRFFCIN,1.04 ± 0.13
7,HYYNSHSWATTTT,inactive
8,PDRLFLDTGSTWFKYMMSCL,-1.12 ± 1.4
9,SSLCYTHRACTCNFTKVDSF,inactive
10,IGTDWRARAMAALYI,inactive
11,KCIGDLTSRMDLR,inactive
12,FICCMLIMKVNYDTRLISSM,inactive
13,VRNEYACNCTYMRIARLDE,0.319 ± 0.29
14,NSQGQNYILTFYR,1.82 ± 0.088
15,AGGSVYKIVEFSCLLFNQKY,inactive
16,YKKVLLDSFYSDTWSSQGSR,inactive
17,TRDFRTCNGLANKVRSKVCS,inactive
18,TYLVNSDMMGDRIFGACRDV,inactive
19,VLKFFLTAMVD,inactive
20,LISCAMGRELTYRSNSRRGR,inactive
21,LAVFFDRD,inactive
22,GRFKSGSLPFRRSGE,inactive
23,RTSLYICINKRTLSHRLFPC,inactive
24,MNFMLTLFLWGM,inactive
25,FMGQFIYLSSRCNSSVDSEV,inactive
26,MCILQGLFDVNSLTGLWVAS,inactive
27,CYSNSEPISAYDD,inactive

row,Substance,amyloid nucleation score
1,YLVAKDVSCNWVVTDGRLCH,inactive
2,YLVSY,inactive
3,FRASVPPEVLPKFARVGMNA,inactive
4,SNACCGWAICCSPCGGKGVS,1.45 ± 0.13
5,MWVMGNDS,inactive
6,GMCWVDFVNNTASCVWFPLC,inactive
7,STGRRPTWATQRLWLWRQQL,-0.091 ± 0.87
8,RLEGRLLCKWVCP,1.96 ± 0.069
9,SSVSFQLEVCNQNVLYGIKI,inactive
10,GRISAKSVVTSWRGVGPYSV,inactive
11,IPRVAWQSYILTSQ,inactive
12,MIQGSVYPFHLCHLYDISHE,inactive
13,YSSFAANSCFLERVEVKSDL,inactive
14,IKCDLRSSVAWDLSVILYSF,inactive
15,VGHFISYCNRIFSAKAIIVF,inactive
16,LLKSGYYKGGFVKGAIRFRE,inactive
17,TRVDGTYKYRLFDLCDAIKF,inactive
18,ISGIHITSELRRGTPERCSH,inactive
19,SDLMRKKMDGMDRNEGCPIR,inactive
20,SCRFRVLRVFLGQTMYSSSI,inactive
21,MWSHLVCCNRQPENLYG,1.32 ± 0.16
22,WTWTSLSSLMWSV,inactive
23,GLSHESTYKEEFESSATSGV,inactive
24,NLVTVLIISRWGAGLR,1.17 ± 0.17
25,FIVNSLPDLNALAHMSALLY,inactive
26,FWCIGEIRCTYMWRSQCFCV,inactive
27,LSEWMSESGNFEFCVASLYR,inactive

row,Substance,amyloid nucleation score
1,MYSNVDQFNI,-0.257 ± 0.47
2,FMCNNRSILGICIFYDLRRN,2.64 ± 0.081
3,PLPYANKNNCFGNSSLRATI,inactive
4,TDKFWLIGDSTTSWIEVVFN,inactive
5,LVSEPFQMRSTGGIGLIAVY,inactive
6,DGMSMCRQLLKGVQKPDYLL,inactive
7,SLYHSLSGYHFCISMLL,inactive
8,YDVPTSTDSLFATFVYYGRR,1.44 ± 0.12
9,IVYILRFRTSMLC,inactive
10,IVYWCLVRNLEKLCCSYFTG,inactive
11,NLQLESFYWFGPRGVRKHLE,inactive
12,NDEMVY,inactive
13,VVRCLLFVQLGCSKNLVAFQ,1.12 ± 0.12
14,WADIIKMGDVHVVDYYRKER,inactive
15,STRFMVIFDGISSVIGAIYG,inactive
16,LYGGLEHESIMFIRCSGWIC,inactive
17,NMTVGHILFLMMTCAMYVNN,inactive
18,EMDTCIQWLSRVLSGPDSFF,-0.72 ± 0.8
19,KLVATVFTSRCATVWLVQGF,inactive
20,LKVVSKVLYNSSYPVRYVLR,inactive
21,TQYMWAYPNND,1.18 ± 0.16
22,GYKATQLLSGGPYNLCVGGT,inactive
23,GYLWVLRLPGVSEFIEMDLQ,inactive
24,TTEEL,inactive
25,HRCDAWYYRS,inactive
